Drawing on patent US20080076824A1, “Compounds That Inhibit Replication Of Human Immunodeficiency Virus” (priority 2004, published 2008), this text covers Km for 3 proteins.

Holding throughout (format): biochemical
Substrate in data set [1]: NCC(=O)N1CCC[C@H]1C(=O)NCC(N)=O
Description: Conversion of [14C]GPG-NH2 to G-NH2 by fetal bovine serum. To be noted: other: derived from GPG-NH2 disappearance curves; pH 3.5. As to the method: (§1) Next, the conversion of radiolabeled [^14C]GPG-NH2 to [^14C]G-NH2 by purified CD26, fetal bovine serum (FBS), human serum (HS) and CEM cell suspensions was analyzed. Radiolabeled [^14C]GPG-NH2 (radiospecificity: 58 mCi/mmol), in which the radiolabeled carbon is located in the main chain carbon of the glycine at the carboxylic acid end of the tripeptide, and [^14C]G-NH2 (radiospecificity: 56 mCi/mmol) in which carbon-2 was radiolabeled were synthesized by Amersham Pharmacia Biotech (Buckinghamshire, England). A variety of these [^14C]GPG-NH2 concentrations were exposed to purified CD26, FBS, HS and CEM cell suspensions and the conversion to G-NH2 was analyzed.
(§2) In another set of experiments, after one hour of exposure, disappearance of intact [^14C]GPG-NH2 was determined by HPLC analysis, as described above, using a cation-exchange Partisphere SCX column and a sodium phosphate buffer gradient at pH 3.5. GPG-NH2 was well-separated from G-NH2 (retention times: 25-27 min and 15-17 min, respectively). […] The GPG-NH2 conversion by the CEM cell suspensions proceeded linearly up to 1.5 mM. Only at higher GPG-NH2 concentrations (e.g., 3 and 5.4 mM), did the conversion curve for the CEM cell suspensions start to level-off slightly.

Substrate in data set [2]: NCC(=O)N1CCC[C@H]1C(=O)NCC(N)=O
Description: Conversion of [14C]GPG-NH2 to G-NH2 by human serum. To be noted: other: derived from GPG-NH2 disappearance curves; pH 3.5. The method, then: as §1, §2

Substrate in data set [3]: NCC(=O)N1CCC[C@H]1C(=O)NCC(N)=O
Description: Conversion of GPG-NH2 to GP-OH and G-NH2 by purified CD26. To be noted: other: purified CD26; pH 3.5. As to the method: In some experiments, approximately, 100 μM GPG-NH2 was exposed to 25 units/l of purified CD26 and the mixture was incubated for up to 400 minutes at room temperature. The lymphocyte surface glycoprotein CD26/dipeptidylpeptidase IV was purified as described before. (See De Meester, J. Immunol. Methods, 189:99-105 (1996), herein expressly incorporated by reference in its entirety). At different time points, an aliquot of the reaction mixture was withdrawn and analyzed on an electrospray ion trap mass spectrometer (Esquire, Bruker, Bremen, Germany). The appearance of the dipeptide GP-OH upon release from the amino terminal end of the GPG-NH2 molecule, as well as, the disappearance of intact GPG-NH2 from the reaction mixture was determined and monitored by electrospray ion trap mass spectometric analysis at different time points (See FIG. 3). Under these experimental conditions, CD26 released GP-OH in a time-dependent manner from GPG-NH2, and virtually completely converted GPG-NH2 to GP-OH and G-NH2 within 4 to 6 hrs of the reaction.
Next, the conversion of radiolabeled [^14C]GPG-NH2 to [^14C]G-NH2 by purified CD26, fetal bovine serum (FBS), human serum (HS) and CEM cell suspensions was analyzed. […] A variety of these [^14C]GPG-NH2 concentrations were exposed to purified CD26, FBS, HS and CEM cell suspensions and the conversion to G-NH2 was analyzed. […]

B1: dipeptidylpeptidase activity associated with FBS (Bos taurus) (protein)
chain: SRRTYTLADYLKNTFRMKFYNLRWVSDHEYLYKQENNILLFNAEYGNSSIFLENSTFDEFGHSINDYSVSPDRQYILFEYNYVKQWRHSYTASYDIYDLNKRQLITEERIPNNTQWITWSSVGHKLAYVWNNDIYVKNEPNSPSQRITWTGKKDVIYNGITDWVYEEEVFSAYSALWWSPNSTFLAYAQFNDTEVPLIEYSFYSDESLQYPKTVKIPYPKAGAVNPTIKFFVVNISSLSPNINATSQQIVPPGSVLIGDHYLCDVTWVTEERISLQWLRRIQNYSIMDICDYDRSTGRWISSVGRQHIEISTTGWVGRFRPAEPHFTSDGNSFYKIISNEEGYKHICHFQTDKRNCTFITKGAWEVIGIEALTSDYLYYISNEYKGMPGARNLYKIQLNDYTKVTCLSCELNPDRCQYYSVSFSQEAKYYQLRCSGPGLPLYTLHNSNNDKELRVLENNSDLDQVLQDVQMPSKKLDFIHLHGTKFWYQMILPPHFDKSKKYPLLLEVYAGPCSQKADAIFRLNWATYLASTENIIVASFDGRGSGYQGDKIMHAINRRLGTFEVEDQIEATRQFSKMGFVDDKRIAIWGWSYGGYVTSMVLGAGSGVFKCGIAVAPVSKWEYYDSVYTERYMGLPTPEDNLDSYRNSTVMSRAENFKQVEYLLIHGTADDNVHFQQSAQISKALVDAGVDFQSMWYTDEDHGIASSTAHQHIYTHMSHFLKQCFSLL
notes: from tissue; host or cells: fetal bovine serum
Consider B1, for which the Km in data set [1] is 1400 µM.

B2: dipeptidylpeptidase activity associated with HS (Homo sapiens) (protein)
chain: SRKTYTLTDYLKNTYRLKLYSLRWISDHEYLYKQENNILVFNAEYGNSSVFLENSTFDEFGHSINDYSISPDGQFILLEYNYVKQWRHSYTASYDIYDLNKRQLITEERIPNNTQWVTWSPVGHKLAYVWNNDIYVKIEPNLPSYRITWTGKEDIIYNGITDWVYEEEVFSAYSALWWSPNGTFLAYAQFNDTEVPLIEYSFYSDESLQYPKTVRVPYPKAGAVNPTVKFFVVNTDSLSSVTNATSIQITAPASMLIGDHYLCDVTWATQERISLQWLRRIQNYSVMDICDYDESSGRWNCLVARQHIEMSTTGWVGRFRPSEPHFTLDGNSFYKIISNEEGYRHICYFQIDKKDCTFITKGTWEVIGIEALTSDYLYYISNEYKGMPGGRNLYKIQLSDYTKVTCLSCELNPERCQYYSVSFSKEAKYYQLRCSGPGLPLYTLHSSVNDKGLRVLEDNSALDKMLQNVQMPSKKLDFIILNETKFWYQMILPPHFDKSKKYPLLLDVYAGPCSQKADTVFRLNWATYLASTENIIVASFDGRGSGYQGDKIMHAINRRLGTFEVEDQIEAARQFSKMGFVDNKRIAIWGWSYGGYVTSMVLGSGSGVFKCGIAVAPVSRWEYYDSVYTERYMGLPTPEDNLDHYRNSTVMSRAENFKQVEYLLIHGTADDNVHFQQSAQISKALVDVGVDFQAMWYTDEDHGIASSTAHQHIYTHMSHFIKQCFSLP
notes: from tissue; host or cells: human serum
On to B2, for which the Km in data set [2] was 450 µM.

B3: CD26/dipeptidylpeptidase IV (Homo sapiens) (protein)
chain: MKTPWKVLLGLLGAAALVTIITVPVVLLNKGTDDATADSRKTYTLTDYLKNTYRLKLYSLRWISDHEYLYKQENNILVFNAEYGNSSVFLENSTFDEFGHSINDYSISPDGQFILLEYNYVKQWRHSYTASYDIYDLNKRQLITEERIPNNTQWVTWSPVGHKLAYVWNNDIYVKIEPNLPSYRITWTGKEDIIYNGITDWVYEEEVFSAYSALWWSPNGTFLAYAQFNDTEVPLIEYSFYSDESLQYPKTVRVPYPKAGAVNPTVKFFVVNTDSLSSVTNATSIQITAPASMLIGDHYLCDVTWATQERISLQWLRRIQNYSVMDICDYDESSGRWNCLVARQHIEMSTTGWVGRFRPSEPHFTLDGNSFYKIISNEEGYRHICYFQIDKKDCTFITKGTWEVIGIEALTSDYLYYISNEYKGMPGGRNLYKIQLSDYTKVTCLSCELNPERCQYYSVSFSKEAKYYQLRCSGPGLPLYTLHSSVNDKGLRVLEDNSALDKMLQNVQMPSKKLDFIILNETKFWYQMILPPHFDKSKKYPLLLDVYAGPCSQKADTVFRLNWATYLASTENIIVASFDGRGSGYQGDKIMHAINRRLGTFEVEDQIEAARQFSKMGFVDNKRIAIWGWSYGGYVTSMVLGSGSGVFKCGIAVAPVSRWEYYDSVYTERYMGLPTPEDNLDHYRNSTVMSRAENFKQVEYLLIHGTADDNVHFQQSAQISKALVDVGVDFQAMWYTDEDHGIASSTAHQHIYTHMSHFIKQCFSLP
notes: made in house; by own knowledge a natural human source (seminal plasma), not recombinant
As to B3, the Km in data set [3] is 183 µM.

One may read the Km as the substrate concentration at which the rate is half of its maximum.
